From patent US20250114463A1, “LIVER-TARGETED DRUG AND USE THEREOF” (HANMI PHARM. CO., LTD., priority 2021, published 2025)
Bridges are numbered along the chain shown (N, C = ends). Where no end group is shown, it is not given here. [ ]: non-standard residue; d: D form. The star is where a group is joined. Acetyl(2-(4-imidazolyl)) = O=C(Cc1c[nH]cn1)*; Aib = CC(C)(N)C(=O)O

How the values were obtained:
Assay in all cases: cell-based or functional assay
[1] = target: human GLP-1 receptor (human, UniProt P43220 24-463)
[2] = target: human GCG receptor (human, UniProt P47871 26-477)
[3] = target: T1, human GIP receptor (human, UniProt P48546 22-466)
T1 sequence (looked up): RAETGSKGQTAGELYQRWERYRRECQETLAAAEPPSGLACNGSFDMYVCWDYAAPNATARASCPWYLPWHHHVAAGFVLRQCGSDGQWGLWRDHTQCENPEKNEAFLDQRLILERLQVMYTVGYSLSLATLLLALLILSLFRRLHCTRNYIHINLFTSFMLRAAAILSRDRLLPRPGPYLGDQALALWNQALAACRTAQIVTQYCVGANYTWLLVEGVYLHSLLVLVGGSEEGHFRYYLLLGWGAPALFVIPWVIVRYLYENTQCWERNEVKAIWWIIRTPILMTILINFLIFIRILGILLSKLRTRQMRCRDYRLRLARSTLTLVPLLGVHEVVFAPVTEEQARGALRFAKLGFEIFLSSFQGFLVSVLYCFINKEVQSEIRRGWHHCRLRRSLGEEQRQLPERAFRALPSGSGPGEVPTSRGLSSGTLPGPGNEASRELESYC

Sequence of human GCG receptor (P47871 26-477): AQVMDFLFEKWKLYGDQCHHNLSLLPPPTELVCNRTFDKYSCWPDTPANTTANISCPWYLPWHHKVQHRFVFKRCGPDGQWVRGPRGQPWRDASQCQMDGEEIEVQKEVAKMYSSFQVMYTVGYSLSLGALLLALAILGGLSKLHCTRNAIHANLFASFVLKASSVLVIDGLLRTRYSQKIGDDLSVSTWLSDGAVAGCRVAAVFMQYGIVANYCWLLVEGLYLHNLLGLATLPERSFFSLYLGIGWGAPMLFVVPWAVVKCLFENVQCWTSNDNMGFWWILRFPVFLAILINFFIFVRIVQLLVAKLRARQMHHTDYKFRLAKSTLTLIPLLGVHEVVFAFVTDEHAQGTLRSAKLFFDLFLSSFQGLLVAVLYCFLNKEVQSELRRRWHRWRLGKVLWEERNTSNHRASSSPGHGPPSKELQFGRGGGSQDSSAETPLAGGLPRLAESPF

In the case of [Acetyl(2-(4-imidazolyl))][Aib]QGTFTSDYSKYLDEKRQKEFVQWLLDTC (bridge 16-20; not fully specified (C-terminus)) [triple agonist of SEQ ID NO: 82], the “in vitro Activity Compared to Native Peptide (%), vs GLP-1” value [1] is reported as 9.5%, the “in vitro Activity Compared to Native Peptide (%), vs Glucagon” value [2] is reported as 1.1% and the “in vitro Activity Compared to Native Peptide (%), vs GIP” value [3] is reported as under 0.1%.

For [Acetyl(2-(4-imidazolyl))][Aib]QGTFTSDYSIAMDEIHQKDFVNWLLAQC (bridge 16-20; not fully specified (C-terminus)) [triple agonist of SEQ ID NO: 85], the “in vitro Activity Compared to Native Peptide (%), vs GLP-1” value [1] was 4.3%, the “in vitro Activity Compared to Native Peptide (%), vs Glucagon” value [2] was under 0.1% and the “in vitro Activity Compared to Native Peptide (%), vs GIP” value [3] was 0.3%.

[Acetyl(2-(4-imidazolyl))][Aib]QGTFTSDYSKCLDEKRAKEFVQWLLDHHPSSGQPPPS (bridge 16-20; not fully specified (C-terminus)) [triple agonist of SEQ ID NO: 74] was tested, and the “in vitro Activity Compared to Native Peptide (%), vs GLP-1” value [1] was 12.9%, the “in vitro Activity Compared to Native Peptide (%), vs Glucagon” value [2] was 0.9% and the “in vitro Activity Compared to Native Peptide (%), vs GIP” value [3] was 1%.

H[Aib]EGTFTSDYSIAMDEIHQKDFVDWLLAEKC (bridge 16-20; not fully specified (C-terminus)) [triple agonist of SEQ ID NO: 80] was tested, and the “in vitro Activity Compared to Native Peptide (%), vs GLP-1” value [1] was 8.1%, the “in vitro Activity Compared to Native Peptide (%), vs Glucagon” value [2] was 0% and the “in vitro Activity Compared to Native Peptide (%), vs GIP” value [3] was 0.1%.

Y[Aib]QGTFTSDYSKYLDERACKDFVQWLLDHHPSSGQPPPS (bridge 16-20; not fully specified (C-terminus)) [triple agonist of SEQ ID NO: 71] was tested, and the “in vitro Activity Compared to Native Peptide (%), vs GLP-1” value [1] was 90.1%, the “in vitro Activity Compared to Native Peptide (%), vs Glucagon” value [2] was 12.7% and the “in vitro Activity Compared to Native Peptide (%), vs GIP” value [3] was 94.7%.

In the case of [Acetyl(2-(4-imidazolyl))][Aib]QGTFTSDYSIAMDEIHQKDFVNWLLNTC (bridge 16-20; not fully specified (C-terminus)) [triple agonist of SEQ ID NO: 87], the “in vitro Activity Compared to Native Peptide (%), vs GLP-1” value [1] is reported as 0.9%, the “in vitro Activity Compared to Native Peptide (%), vs Glucagon” value [2] is reported as under 0.1% and the “in vitro Activity Compared to Native Peptide (%), vs GIP” value [3] is reported as under 0.1%.

For [Acetyl(2-(4-imidazolyl))][Aib]QGTFTSDYSKYLDEKRQKEFVQWLLDTKC (bridge 16-20; not fully specified (C-terminus)) [triple agonist of SEQ ID NO: 89], the “in vitro Activity Compared to Native Peptide (%), vs GLP-1” value [1] was 7.1%, the “in vitro Activity Compared to Native Peptide (%), vs Glucagon” value [2] was 0.7% and the “in vitro Activity Compared to Native Peptide (%), vs GIP” value [3] was under 0.1%.

In the case of H[Aib]QGTFTSDYSKYLDEKRQKEFVQWLLDTKC (bridge 16-20; not fully specified (C-terminus)) [triple agonist of SEQ ID NO: 78], the “in vitro Activity Compared to Native Peptide (%), vs GLP-1” value [1] is reported as 51%, the “in vitro Activity Compared to Native Peptide (%), vs Glucagon” value [2] is reported as 14% and the “in vitro Activity Compared to Native Peptide (%), vs GIP” value [3] is reported as 0.12%.

For H[Aib]QGTFTSDVSKYLDGQAAQEFVAWLLKGC (not fully specified (C-terminus)) [triple agonist of SEQ ID NO: 8], the “in vitro Activity Compared to Native Peptide (%), vs GLP-1” value [1] was 14.2%, the “in vitro Activity Compared to Native Peptide (%), vs Glucagon” value [2] was 0.1% and the “in vitro Activity Compared to Native Peptide (%), vs GIP” value [3] was under 0.1%.

In the case of [Acetyl(2-(4-imidazolyl))][Aib]QGTFTSDYSKYLDEKRQKEFVNWLLAQC (bridge 16-20; not fully specified (C-terminus)) [triple agonist of SEQ ID NO: 86], the “in vitro Activity Compared to Native Peptide (%), vs GLP-1” value [1] is reported as 28.4%, the “in vitro Activity Compared to Native Peptide (%), vs Glucagon” value [2] is reported as 0.4% and the “in vitro Activity Compared to Native Peptide (%), vs GIP” value [3] is reported as 0.2%.

With [Acetyl(2-(4-imidazolyl))][Aib]QGTFTSDYSKYLDEKRQKEFVQWLLNTC (bridge 16-20; not fully specified (C-terminus)) [triple agonist of SEQ ID NO: 81] the “in vitro Activity Compared to Native Peptide (%), vs GLP-1” value [1] was 7.8%, the “in vitro Activity Compared to Native Peptide (%), vs Glucagon” value [2] was 0.3% and the “in vitro Activity Compared to Native Peptide (%), vs GIP” value [3] was under 0.1%.

For [Acetyl(2-(4-imidazolyl))][Aib]EGTFTSDYSIAMDEIHQKDFVDWLLAEC (bridge 16-20; not fully specified (C-terminus)) [triple agonist of SEQ ID NO: 84], the “in vitro Activity Compared to Native Peptide (%), vs GLP-1” value [1] was 4.2%, the “in vitro Activity Compared to Native Peptide (%), vs Glucagon” value [2] was under 0.1% and the “in vitro Activity Compared to Native Peptide (%), vs GIP” value [3] was under 0.1%.

H[Aib]EGTFTSDYSIAMDEIHQKDFVNWLLAQKC (bridge 16-20; not fully specified (C-terminus)) [triple agonist of SEQ ID NO: 79] was tested, and the “in vitro Activity Compared to Native Peptide (%), vs GLP-1” value [1] was 41.5%, the “in vitro Activity Compared to Native Peptide (%), vs Glucagon” value [2] was 4.9% and the “in vitro Activity Compared to Native Peptide (%), vs GIP” value [3] was 1.4%.

In the case of H[Aib]QGTFTSDVSKYLDGQAAQEFVAWLLAGC (not fully specified (C-terminus)) [triple agonist of SEQ ID NO: 9], the “in vitro Activity Compared to Native Peptide (%), vs GLP-1” value [1] is reported as 32.1%, the “in vitro Activity Compared to Native Peptide (%), vs Glucagon” value [2] is reported as 0.13% and the “in vitro Activity Compared to Native Peptide (%), vs GIP” value [3] is reported as under 0.1%.

For Y[Aib]QGTFTSDYSKYLDEKRAKDFVQWLLDHHPSSGQPPPSC (bridge 16-20; not fully specified (C-terminus)) [triple agonist of SEQ ID NO: 76], the “in vitro Activity Compared to Native Peptide (%), vs GLP-1” value [1] was 10.3%, the “in vitro Activity Compared to Native Peptide (%), vs Glucagon” value [2] was 47.6% and the “in vitro Activity Compared to Native Peptide (%), vs GIP” value [3] was 11.7%.

With Y[Aib]QGTFTSDYSKYLDEKAAKEFVQWLLDHHPSSGQPPPSC (bridge 16-20; not fully specified (C-terminus)) [triple agonist of SEQ ID NO: 75] the “in vitro Activity Compared to Native Peptide (%), vs GLP-1” value [1] was 35.1%, the “in vitro Activity Compared to Native Peptide (%), vs Glucagon” value [2] was 8.5% and the “in vitro Activity Compared to Native Peptide (%), vs GIP” value [3] was 18%.

With Y[Aib]QGTFTSDCSKYLDERAAKDFVQWLLDHHPSSGQPPPS (bridge 16-20; not fully specified (C-terminus)) [triple agonist of SEQ ID NO: 72] the “in vitro Activity Compared to Native Peptide (%), vs GLP-1” value [1] was 11.5%, the “in vitro Activity Compared to Native Peptide (%), vs Glucagon” value [2] was 1% and the “in vitro Activity Compared to Native Peptide (%), vs GIP” value [3] was 1.6%.

With [Acetyl(2-(4-imidazolyl))][Aib]EGTFTSDYSIAMDEIHQKDFVNWLLAQC (bridge 16-20; not fully specified (C-terminus)) [triple agonist of SEQ ID NO: 83] the “in vitro Activity Compared to Native Peptide (%), vs GLP-1” value [1] was 47.3%, the “in vitro Activity Compared to Native Peptide (%), vs Glucagon” value [2] was 1.3% and the “in vitro Activity Compared to Native Peptide (%), vs GIP” value [3] was 0.4%.

In the case of [Acetyl(2-(4-imidazolyl))][Aib]QGTFTSDYSKYLDEKRQKEFVQWLLNTKC (bridge 16-20; not fully specified (C-terminus)) [triple agonist of SEQ ID NO: 88], the “in vitro Activity Compared to Native Peptide (%), vs GLP-1” value [1] is reported as 9.6%, the “in vitro Activity Compared to Native Peptide (%), vs Glucagon” value [2] is reported as 0.3% and the “in vitro Activity Compared to Native Peptide (%), vs GIP” value [3] is reported as under 0.1%.

Y[Aib]QGTFTSDYSKYLDEKAAKDFVQWLLDHHPSSGQPPPSC-NH2 (bridge 16-20) [triple agonist of SEQ ID NO: 77] was tested, and the “in vitro Activity Compared to Native Peptide (%), vs GLP-1” value [1] was 38.7%, the “in vitro Activity Compared to Native Peptide (%), vs Glucagon” value [2] was 12.2% and the “in vitro Activity Compared to Native Peptide (%), vs GIP” value [3] was 35.5%.

[Acetyl(2-(4-imidazolyl))][Aib]QGTFTSDYSKYLDECRAKEFVQWLLDHHPSSGQPPPS (bridge 16-20; not fully specified (C-terminus)) [triple agonist of SEQ ID NO: 73] was tested, and the “in vitro Activity Compared to Native Peptide (%), vs GLP-1” value [1] was 22.6%, the “in vitro Activity Compared to Native Peptide (%), vs Glucagon” value [2] was 5.4% and the “in vitro Activity Compared to Native Peptide (%), vs GIP” value [3] was 3%.

In the case of [Acetyl(2-(4-imidazolyl))][Aib]EGTFTSDYSIAMDEIHQKDFVNWLLAQKC (bridge 16-20; not fully specified (C-terminus)) [triple agonist of SEQ ID NO: 90], the “in vitro Activity Compared to Native Peptide (%), vs GLP-1” value [1] is reported as 7.4%, the “in vitro Activity Compared to Native Peptide (%), vs Glucagon” value [2] is reported as under 0.1% and the “in vitro Activity Compared to Native Peptide (%), vs GIP” value [3] is reported as under 0.1%.
